Measured values published in patent US20220276234A1, “POINT-OF-CARE IMMUNOASSAY FOR QUANTITATIVE SMALL ANALYTE DETECTION” (priority 2011, published 2022).

Tests used:
[1] = compared with parent compound aripiprazole and dehydro aripiprazole; cited from earlier work
[2] = cited from earlier work
[3] = in vivo; cited from earlier work
B7-HTHC immune complex [4] = assay: Capillary electrophoresis test of candidate aptamers; type: binding; conditions: electropherogram peak shift, FIGS. 10A and 10B
Description: Following completion of aptamer selection, aptamers from the first, fifth, and tenth rounds of Structure Switching SELEX were sequenced using standard Next-Generation Sequencing (NGS) methods (AKESOgen). Of the sequences obtained by NGS, ten sequences per aptamer were tested using Capillary Electrophoresis (CE) and in a proprietary assay utilizing real-time PCR.
The candidate aptamers were initially tested using capillary electrophoresis. Of the 10 B7-HTHC aptamers, 3 were identified as candidate binders. […] This is likely due to the difference between the composition of the buffer required for capillary electrophoresis and the composition of the buffer used during the SELEX selection process.

B7-HTHC immunocomplex = assay: Sandwich type ELISA assay with selected derived B7-HTHC aptamers (5' biotin, HRP-streptavidin, TMB); type: binding
Description: The 11 aptamers were synthesized with a 5′ biotin such that they could be detected in ELISA-type assays. The aptamers were tested for their ability to bind to the target in two ways. In both assays, the antibody was coated onto the walls of a microtiter plate. In the first assay, HTHC was added to the antibody. After washing away unbound HTHC, the aptamers were added. In the second assay, the aptamers were added to the wells with HTHC simultaneously. In both assays, after washing away unbound aptamer, the plates were incubated with HRP-streptavidin, and then assayed for the amount of aptamer that remained bound to the immunocomplex using a colorimetric TMB assay.

B7 antibody alone = assay: Proprietary qPCR-based aptamer binding assay, immune complexes anchored to solid support; conditions: qPCR amplification, FIG. 11
Description: (§1) Binding selectivity was tested in varying salt conditions to determine optimal conditions for selection. Using a proprietary binding assay, the aptamers were allowed to incubate with immune complexes that were anchored to a solid support. After the incubation period, the immune complexes were washed, and the amount of aptamer binding was assayed via qPCR. Increased aptamer binding to the immune complex allowed faster detection of DNA amplification.
(§2) Of the aptamers tested, only one aptamer satisfied the following requirements: (1) binding to the correct immune complex, (2) no binding to the antibody alone, and (3) no binding to the antibody and the incorrect metabolite. FIG. 11 is a qPCR amplification curve showing the binding of Aptamer B7C4 with the immune complex B7-HTHC, the immune complex B7-THC, the B7 antibody alone, and a negative control. Theoretically, every additional cycle indicates 2 times fewer bound aptamer molecules.

B7-HTHC immune complex [5] = assay: as above; conditions: qPCR amplification, FIG. 11
Description: as §1, §2

B7-THC immune complex = assay: as above; conditions: qPCR amplification, FIG. 11
Description: as §1, §2

[6] = separate incubation: aptamers added after HTHC and washing, FIG. 16A
[7] = simultaneous incubation: aptamers added with HTHC, FIG. 16B

O=C(O)CCCOc1ccc2c(c1)NC(=O)CC2 [OPC-3373]
Water solubility [1]: much more water soluble

CN1CCCC1c1cccnc1 (stereo not shown) [nicotine]
Time to reach the brain after inhalation ([2]; crosses the blood-brain barrier): 10 to 20 s | Elimination half-life in the body ([2]; in vivo): approximately two

CCCCCc1cc(O)c2c(c1)OC(C)(C)[C@@H]1CCC(C)=C[C@@H]21 [THC, Delta-9-tetrahydrocannabinol]
Excreted in the feces [3]: More than 55% | Excreted in the urine [3]: approximately 20%

B1: B7C1: candidate DNA aptamer for antibody B7 and HTHC (nucleic acid)
DNA: CCTGTCAGTTGCTTACCGGCCCAGGTGTAGTAACTGCAGGGATTCTTAACGTAGCTACCGGGTGTAGTGTCCTTGCTCGT
modifications: DNA, backbone not given here; further chemistry not fully specified
notes: candidate DNA aptamer for antibody B7 and HTHC
Binding to immune complex by capillary electrophoresis (B7-HTHC immune complex [4]): peak shifts associated with the introduction of the immune complex

B2: Aptamer 493: selected derived B7-HTHC DNA aptamer (nucleic acid)
DNA: CCTGTCAGTTGCTTACCGGGCACGAGTACGAGACTGCAGGATTCTTCTACACTGCACCCCATGTAGTGTCCTTGCTC
modifications: DNA, backbone and methylation of C not given here
Normalized absorption signal, aptamer binding to immunocomplex (B7-HTHC immunocomplex; [6]): the opposite behavior compared to that of aptamer 444 | Normalized absorption signal, aptamer binding to immunocomplex (B7-HTHC immunocomplex; [7]): the opposite behavior compared to that of aptamer 444

B3: B7C4: parent DNA aptamer selective for the B7-HTHC immune complex (nucleic acid)
DNA: CCTGTCAGTTGCTTACCGGGCACGAGTACGAGACTGCAGGATTCTTCTACACTGCCCCCCATGTAGTGTCCTTGCTCGT
modifications: DNA, backbone not given here; further chemistry not fully specified
Aptamer binding to B7 antibody alone (B7 antibody alone): minimal binding | Aptamer binding to B7 antibody alone (B7 antibody alone; listed as B7C4-HTHC): residual binding affinity | Aptamer binding to B7-HTHC immune complex (B7-HTHC immune complex [5]): significant binding | Aptamer binding to B7-HTHC immune complex (B7-HTHC immune complex [5]; listed as B7C4-HTHC): high affinity | Aptamer binding to B7-THC immune complex (B7-THC immune complex): minimal binding

B4: Aptamer 368.2: selected derived B7-HTHC DNA aptamer (nucleic acid)
DNA: CCTGTCAGTTGCTTACCGGGCACGAGTACGAGACTGCAGGATTCTTCTACACTGCTCCCCATGTAGTGTCCTTGCTCGT
modifications: DNA, backbone and methylation of C not given here
Normalized absorption signal, aptamer binding to immunocomplex (B7-HTHC immunocomplex; [6]): significant binding | Normalized absorption signal, aptamer binding to immunocomplex (B7-HTHC immunocomplex; [7]): significant binding

B5: Aptamer 444: selected derived B7-HTHC DNA aptamer (nucleic acid)
DNA: CCTGTCAGTTGCTTACCGGGCACGAGTACGAGACTGCAGGATTCTTCTACACTGCGCCCCATGTAGTGTCCTTGCTCGT
modifications: DNA, backbone and methylation of C not given here
Normalized absorption signal, aptamer binding to immunocomplex (B7-HTHC immunocomplex; [6]): high sensitivity | Normalized absorption signal, aptamer binding to immunocomplex (B7-HTHC immunocomplex; [7]): reduced sensitivity

B6: Aptamer 815: selected derived B7-HTHC DNA aptamer, family 2 (nucleic acid)
DNA: CCTGTCAGTTGCTTACCGGGCACGAGTACTAGACTGCAGGATTCTTCTACACTGCCCCCCATGTAGTGTCCTTGCTCGT
modifications: DNA, backbone and methylation of C not given here
Normalized absorption signal, aptamer binding to immunocomplex (B7-HTHC immunocomplex; [6]): high binding | Normalized absorption signal, aptamer binding to immunocomplex (B7-HTHC immunocomplex; [7]): lost this ability
